Measured values: article PMC1253830

Tests used:
Assay in all cases: two-hybrid
[1] = biological target: pGBKT7-CcLim15 (Coprinus cinereus Lim15/Dmc1, residues 1-345, fused to the GAL4 DNA-binding domain) (Coprinus cinereus)
[2] = biological target: pGBKT7-CcLim15NT 1-104 (Coprinus cinereus)
[3] = biological target: pGBKT7-CcLim15CT 104-345 (Coprinus cinereus)

Substance | β-galactosidase activity [1] | β-galactosidase activity [2] | β-galactosidase activity [3]
pGADT7-CcTopIINT 1-750 (domain or fragment) | < 1 |  | 
pGADT7-CcTopIIMD 751-1065 (domain or fragment) | < 1 |  | 
pGADT7-CcTopIICT 1066-1569 (domain or fragment) | 16.5 | < 1 | 3.49
